The values below come from publication PMC2954370 (Antiviral research, 2010).

Sequences and labels used below:
B1: m36 mutant m36.4 (VHH)
VHH: QVQLVQSGGGLVQPGGSLRLSCAASAFDFSDYEMSWVREAPGKGLEWIGEINDSGNTIYNPSLKSRVTISRDNSKNTLYLQMNTLRAEDTAIYYCAIYGGNSGGEYWGQGTLVTVSS
B2: m36 mutant m36.1 (VHH)
VHH: B1 VHH with A26T, S65N
B3: m36 mutant m36.5 (VHH)
VHH: B1 VHH with R86S
B4: HIV-1 envelope glycoprotein gp120 of isolate Bal (natural protein)
chain: not shown

The target in experiment [1] is B4. Put plainly: cell-based or functional assay.
The target of experiment [2] is T1, HIV-1 Env gp140 of isolate JRFL (HIV-1 isolate JRFL (clade B), UniProt Q75760). Put plainly: cell-based or functional assay.
Experiment [3] concerns the target B4. Put plainly: ELISA.
Experiment [4] deals with T1, HIV-1 Env gp140 of isolate JRFL. The experiment in a line: ELISA.
The target of experiment [5] is fusion protein of m36 with human IgG1 Fc (human). Put plainly: ELISA.

Numbering of substitutions follows the chain as printed.

Take B1: the “IC50 of neutralisation of HIV-1 Bal Env-pseudotyped virus, HOS-CD4-CCR5 cells” value in experiment [1] came out at 11 nM. In experiment [2], the “IC50 of neutralisation of HIV-1 JRFL Env-pseudotyped virus, HOS-CD4-CCR5 cells” value came out at 27 nM.
In the case of B2, the binding result in experiment [3] and in experiment [4] was “binds” each time.
As for B3, the binding result in experiment [3] and in experiment [4] was “binds” throughout.
In the case of B4, the binding result in experiment [5] is “binds”.
